Laboratory results as given in the nanobody polyreactivity screen of Harvey et al. (2022).

Assay: yeast display, Sf9 membrane polyspecificity reagent, FACS + sequencing; frameworks hold sequencing errors
How it was run: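 Genes from sorted yeast were amplified by colony PCR, read by MiSeq 2 × 250 sequencing and filtered on CDR length. These cells carried a synthetic nanobody library in Saccharomyces cerevisiae BJ5465 and were sorted by FACS into low and high (top ~1%) gates on anti-HA and streptavidin fluorescence. Polyreactivity is labelled according to the gate of origin.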

Sequence | polyreactivity (PSR sort gate)
QVQLVESGGGLVQAGGSLRLSCAASGSTFVSYAMGWYRQAPGKESELVAGISWSGTRTYYADSVKGRFTISRDNAKNTVYLQMNSLKPEDTAVYYCAARDSSYNWYGYWGQGTQVTVSS | high polyreactivity
QVHHVESGGGLVQAGGSLRLSCAASGSIFWTYAMGWYRQAPGKERELVAAITSGSSTKYADSVKGRFTISRDNAKNTVYLQMYSLKPEDTAVYYCNARSYRGYRGVFLYSGLLGSDYWGQGTQVTVSS | low polyreactivity
QGQLVESGGGLVQAGGSLRLTCAASGITFDDYAMGWYRQAPGKERELVAAISWSGDITYYADSVKGRFTSSRDNATNTVYLQMNSLKPEDTAVYYCAADLSPYGYDYWGQGTQVTVSS | low polyreactivity
QVQIVESGRGLVQAGGSLRLSCAASGSTFKYYAMGWYIQAPGKERELVAAISWTGGSTYYADSVKGRFTISRDNAKNTVYLQMNSLKPEDTAVYYCNALGHVQGYDYWGQGTQVTVSS | high polyreactivity
QVQLVESGGGLVQAGGSLRLSCAASGRTFTLYAMGWYRQAPGKERELVASITSGTRTYYADSVKGRFTISRDNAKNTVYLQMNSLKPEDTAVYYCAKEGYLRTLHRLYDYWGQGTQVTVSS | low polyreactivity
QVQLVESGGGLVQAGGSLRLSCAASGFTFSRNVMGWYRQAPGKERELVADITLSGASTYYADSVKGRFTISRDNAKNTVYLQMNSLKPEDTAVYYCAAEPYHWRWGWRHDYWGQGTQVTVSS | low polyreactivity
QVQLVESGGGLVQAGGSLRLSCAASGRILDVYVMGWYRQAPGKERELVAAISSGGSTYYADSVKGRFTISRDNAKNTVYLQMNSLKPEDTAVYYCAFYYWGQGTQVTVSS | high polyreactivity
QVQLVESGGGLVQAGGSLRLSCAASGLILRKYAMGWYRQAPGKEREFVAAITQTGSRTYYADSVKVRFTISRDNAKYTVYFQMNSLIPEDTAVYYCNAVNYRSSRDSGYWGQGTQVTVSS | high polyreactivity
QFQLVESGGGLVQAGGSLRLSCAASGFTFPYNGMGWYRQAPGKERELVAAISYGGGGKYYADSVKGRFTISRDNAKNTVYLQMNSLKPEDTAVYYCATDDPLSQINEQGMDYWGQGTQVTVSS | low polyreactivity
QVQLVESGGGLVQAGGSLRLSCAASGRIFDGNAMGWYRQAPGKERELVAAISSRGARTYYADSVKGRFTISRDNAKNTVYLQMNSLKPEDTAVYYCNKDLDSLSGAEYDYWGQGTQVTVSS | high polyreactivity
QVQLVESVGGLVQAGGSLRLSCAASGRIFYKNVMGWYRQAPRKERELVAAISTSTGRTYYADSVNGRFTISRDNAKNTVYLQMNSLKPEDTAVYYCNAVRGLTNGVLYRYDYWGQGTQVTVSS | high polyreactivity
QVQLVESGGGLVQAGGSLRLSCAASGRIFQRYAMGWYRQAPGKERELVAGITSSGGSTYYADSVKGRFTISRDNAKNTVYLQMNSLKPEDTAVYYCNAGGELRYYGYRAGGTTRSYDYWGQGTQVTVSS | low polyreactivity
QVQLVESGGGLVQAGGSLRLSCAASGSIFSSYAMGWYRQAPGKERELVAAISTAGSTNYADSVKGRFTISRDNAKNTVYLQINSLKPEDTAVYYCAADSGDQQSYGLDLNHDFDYWGQGSQVTVSS | low polyreactivity
QVQLVESGGGLVQAGGSLRLSCAASGYTFSQNAMGWYRQAPGKERELVAAITWSGAGTYYADSVKGRFTISRDNAKNTVYLQMNSLKPEDTAVYYCAAREWTSQDRQHNYWGQGTQVTVSS | low polyreactivity
QVQLVESGGGLVQAGGSLRLSCAASGSTFNNYAMGSYRQAPGKVREFVAAINGSGGSTYYADSVKGRFTISRDNAKNTVYLQLNSRKPEDPAVYYCAADVSATAYYDLMDYWVQGTQVTVSS | low polyreactivity
QVQLVESGGGLVQAAGSLRLICAASGRTFDSYAMGRYRQAPGKEREFVAAISYSGTSTYYADSVKGRFTISRDDAKNTVYLQMNSLKPEDTAVYYCAKEYIFRLWGQGTQVTVSS | low polyreactivity

Sequence | polyreactivity (PSR sort gate)
QVQLVESGGGLVQAGGSLRLSCPASGSTLWGYAMGWYRQAPGKERELVAAITSSGGITYYADSVKGRFTISRDNAKNTVYLQMNSLKPEDTAVYYCAVDYYVVGWTYLYYYRGQGTQVTVSS | low polyreactivity
QVQLVESGGGLVQAGGSLRLSCAASGRIFQTNVMGWYRQAPGKEKELVAAISYRGGTTYYEDSVKARFTISRDNAQNTVYLPMYSLYPEDTAVYYCAALHYRIRRTGMDYWGQGTQVTVSS | low polyreactivity
QVQLVESVGRLVQAGGSLRLSCAASGFIFIFYTMGWYRHAPGKERELVASITSSGGSTYYADSVKGRFTISRDNAKNTVYLQMNSLNPEDTAVYYCAAKKYRSPRGYWGLGTQVTVSS | high polyreactivity
QVQLVDSGGGLVQAGGSLRLSCAASGSTLAYYTMGWYRQAPGKERELVAAITSGGFTHYADSVKGRFTISRDNAKNTVYLQMNSLKPEDTAVYYCAAKRGPVYYGYYYLGQGTQVTVSS | high polyreactivity
QVQLVESGGGLVQAGGSLRLSCAASGYISNAMGWYRQAPGKERELVAAISRSGGSTYYADSVKGRFTISRDNAKNTVYLQMNSLKPEDTAVYYCAGDSTYHARRLDYWGQGTQVTVSS | low polyreactivity
QVQHVESGGGLVQAGGSLRLSCAASGRTFYRYAMGWSRQAPGKERELVASINRGGSTNYADSVKGRFTISRDNAKNTVYLQMNSLKPEDTAVYYCNADGYQAASRVYRRPKRYYSWGQGTQVTVSS | low polyreactivity
QVQLVESGGGLVQAGGSLRLSCAASGSIFYYNVMGWYRQAPGKERELVAAISQSGVRTYYADSVKGRFTISRDNAKNTVYLQMNSLKPEDTAVYYCAAKARRLYASSYDYWGQGTQVTVSS | high polyreactivity
QVQLVESGGGLVQAGGSLRLSCAASGTTLYYYAMGWSRQAPGKERELVASITKSGASTYYADSVKGRFTISRDNAKNTVYLQMNSLKPEDTAVYYCARDPFWRGYTPRHYNYWGQGTQVTVSS | low polyreactivity
QVQLVESGGGLVQAGGSLRLSCAASGFIFETNAMGWYRQAPGNERELVAAISSRGGSTYYADSVKGRFTISRDNAKNTVYLQMNSLKPEDTAVYYCAAKLVVSYGQEYDYWGQGTQVTVSS | low polyreactivity
QVQLVESGGGLVQAGGSLRLSCAASGFIFYKNAMGWYRQAPGKERELVAISSSGGSTYYADSVKGRFTISRDNAKNSVYLQMNSLKPEDTAVYYCADRSRRYRGGYWGQGTQVTVSS | high polyreactivity
QVPLVESGGGLVQAGGSLRLSCAASGRSFTSNAMGWYRQAPGKEREFVAAITIRGGSTYYADSVKGRFTISRDNATNTVYLQMHSLKPEDTALYYCAVGRRKTWGDYWGQGTQVTVSS | high polyreactivity
QVHLVESGGGLVQAGGSLRLSCAASAFTFSQYAMGWYRQAPGKERELVAVISINGGSTYYADSVKGRFTISRDNAKNTVYLQMNSLKPEDTAVYYCAADDTDSEYYGYDYWGQGTQVTVSS | low polyreactivity
QVQLVESWAGLVQAGGRLRLSCAASGSSFQVYAMGWYRQAPGKERELVAAISGDGGSTYYADSVKGRFTISRDNAKNTVYLQMNSLKPEDTAVYYCAARGLFRYTDYGYWGQGTQVTVST | low polyreactivity
QVQLVESGGGLIQAGGSLRLSCAASGSTFGTYTRGWYRQAPGKERELVAAIRSGGITYYADSVKGRFTISRDNAKNTVYLQMNSLKPEDTAVYYCAKQYTGEPAMEYWGQGTQVTVSS | low polyreactivity
QVQLVESGGGLVQAGGSLRLSCAASGRIFKPYVMGWYRQAPGKERELVAAITRGGSTNYADSVKGRFTISRDNAKNTVYLQMNSLKPEDTAVYDCAVYYYGTWGWDDYWGQGTQVTVSS | high polyreactivity
QVQLVETGGGLVQAGGSLRLSCAASGSTFKGYAMGWYRQSPGKERELVAAISRSGTRTYYADSVKGRFTISRDNAKNTVYLQMNSLKPEDTAVSFCNKDTGYIAHDNENGRDYWGQGTQVTVSS | low polyreactivity
